B1: HNRNPL (protein, UniProt P14866 1-589, looked up)
Heterogeneous nuclear …: MSRRLLPRAEKRRRRLEQRQQPDEQRRRSGAMVKMAAAGGGGGGGRYYGGGSEGGRAPKRLKTDNAGDQHGGGGGGGGGAGAAGGGGGGENYDDPHKTPASPVVHIRGLIDGVVEADLVEALQEFGPISYVVVMPKKRQALVEFEDVLGACNAVNYAADNQIYIAGHPAFVNYSTSQKISRPGDSDDSRSVNSVLLFTILNPIYSITTDVLYTICNPCGPVQRIVIFRKNGVQAMVEFDSVQSAQRAKASLNGADIYSGCCTLKIEYAKPTRLNVFKNDQDTWDYTNPNLSGQGDPGSNPNKRQRQPPLLGDHPAEYGGPHGGYHSHYHDEGYGPPPPHYEGRRMGPPVGGHRRGPSRYGPQYGHPPPPPPPPEYGPHADSPVLMVYGLDQSKMNCDRVFNVFCLYGNVEKVKFMKSKPGAAMVEMADGYAVDRAITHLNNNFMFGQKLNVCVSKQPAIMPGQSYGLEDGSCSYKDFSESRNNRFSTPEQAAKNRIQHPSNVLHFFNAPLEVTEENFFEICDELGVKRPSSVKVFSGKSERSSSGLLEWESKSDALETLGFLNHYQMKNPNGPYPYTLKLCFSTAQHAS
B2: KANK1 (protein, UniProt Q14678 1-1352, looked up)
KN motif and ankyrin repeat …: MAHTTKVNGSASGKAGDILSGDQDKEQKDPYFVETPYGYQLDLDFLKYVDDIQKGNTIKRLNIQKRRKPSVPCPEPRTTSGQQGIWTSTESLSSSNSDDNKQCPNFLIARSQVTSTPISKPPPPLETSLPFLTIPENRQLPPPSPQLPKHNLHVTKTLMETRRRLEQERATMQMTPGEFRRPRLASFGGMGTTSSLPSFVGSGNHNPAKHQLQNGYQGNGDYGSYAPAAPTTSSMGSSIRHSPLSSGISTPVTNVSPMHLQHIREQMAIALKRLKELEEQVRTIPVLQVKISVLQEEKRQLVSQLKNQRAASQINVCGVRKRSYSAGNASQLEQLSRARRSGGELYIDYEEEEMETVEQSTQRIKEFRQLTADMQALEQKIQDSSCEASSELRENGECRSVAVGAEENMNDIVVYHRGSRSCKDAAVGTLVEMRNCGVSVTEAMLGVMTEADKEIELQQQTIESLKEKIYRLEVQLRETTHDREMTKLKQELQAAGSRKKVDKATMAQPLVFSKVVEAVVQTRDQMVGSHMDLVDTCVGTSVETNSVGISCQPECKNKVVGPELPMNWWIVKERVEMHDRCAGRSVEMCDKSVSVEVSVCETGSNTEESVNDLTLLKTNLNLKEVRSIGCGDCSVDVTVCSPKECASRGVNTEAVSQVEAAVMAVPRTADQDTSTDLEQVHQFTNTETATLIESCTNTCLSTLDKQTSTQTVETRTVAVGEGRVKDINSSTKTRSIGVGTLLSGHSGFDRPSAVKTKESGVGQININDNYLVGLKMRTIACGPPQLTVGLTASRRSVGVGDDPVGESLENPQPQAPLGMMTGLDHYIERIQKLLAEQQTLLAENYSELAEAFGEPHSQMGSLNSQLISTLSSINSVMKSASTEELRNPDFQKTSLGKITGNYLGYTCKCGGLQSGSPLSSQTSQPEQEVGTSEGKPISSLDAFPTQEGTLSPVNLTDDQIAAGLYACTNNESTLKSIMKKKDGNKDSNGAKKNLQFVGINGGYETTSSDDSSSDESSSSESDDECDVIEYPLEEEEEEEDEDTRGMAEGHHAVNIEGLKSARVEDEMQVQECEPEKVEIRERYELSEKMLSACNLLKNTINDPKALTSKDMRFCLNTLQHEWFRVSSQKSAIPAMVGDYIAAFEAISPDVLRYVINLADGNGNTALHYSVSHSNFEIVKLLLDADVCNVDHQNKAGYTPIMLAALAAVEAEKDMRIVEELFGCGDVNAKASQAGQTALMLAVSHGRIDMVKGLLACGADVNIQDDEGSTALMCASEHGHVEIVKLLLAQPGCNGHLEDNDGSTALSIALEAGHKDIAVLLYAHVNFAKAQSPGTPRLGRKTSPGPTHRGSFD
B3: FBL (protein, UniProt P22087 1-321, looked up)
rRNA 2'-O-methyltransferase …: MKPGFSPRGGGFGGRGGFGDRGGRGGRGGFGGGRGRGGGFRGRGRGGGGGGGGGGGGGRGGGGFHSGGNRGRGRGGKRGNQSGKNVMVEPHRHEGVFICRGKEDALVTKNLVPGESVYGEKRVSISEGDDKIEYRAWNPFRSKLAAAILGGVDQIHIKPGAKVLYLGAASGTTVSHVSDIVGPDGLVYAVEFSHRSGRDLINLAKKRTNIIPVIEDARHPHKYRMLIAMVDVIFADVAQPDQTRIVALNAHTFLRNGGHFVISIKANCIDSTASAEAVFASEVKKMQQENMKPQEQLTLEPYERDHAVVVGVYRPPPKVKN

tested on: GFP-14-3-3β; assay: GFP-14-3-3β co-IP with LC-MS/MS, untreated GFP-14-3-3β versus GFP control (14-3-3 interactome); format: binding, human; conditions: untreated vs GFP; LFQ intensities, replicates 1-3

| Molecule | Difference (log2), untreated vs GFP |
| --- | --- |
| B1 | 0.7735 log2 |
| B2 | 3.839 log2 |
| B3 | 2.48 log2 |

tested on: GFP-14-3-3β and its binding proteins; assay: GFP-14-3-3β co-IP with LC-MS/MS label-free quantification, untreated versus PP1c-treated; design: species or system human; conditions: PP1 vs untreated; LFQ intensities, replicates 1-3

| Molecule | Difference (log2), PP1 vs untreated |
| --- | --- |
| B1 | -1.243 log2 |
| B2 | -1.352 log2 |
| B3 | -1.367 log2 |
